Molecular target: T1, Gallus gallus TRPV4 isolated ankyrin repeat domain (residues 135-382) (Gallus gallus, UniProt A0A1D5PXA5 135-382)
T1 construct: TRPV4, Gallus gallus, ankyrin repeat domain, residues 135-382; Made from the NTD vector by Gibson deletion; also called ARD; TRPV4 ARD; source: E. coli BL21-Gold(DE3), purified (Ni-NTA, Ulp-1 cleavage, reverse Ni-NTA, SEC); not shown: His6SUMO, N-terminal, cleaved
Test: cross-linking; DSS-H12/D12 cross-linking mass spectrometry; isolated IDR and ARD mixed 1:1; 1.5 nmol DSS per ug protein, 2 h at 4 °C, 1 mg/mL protein, 20 mM HEPES pH 7, 300 mM NaCl
Settings: both partners purified

T1 sequence (A0A1D5PXA5 135-382): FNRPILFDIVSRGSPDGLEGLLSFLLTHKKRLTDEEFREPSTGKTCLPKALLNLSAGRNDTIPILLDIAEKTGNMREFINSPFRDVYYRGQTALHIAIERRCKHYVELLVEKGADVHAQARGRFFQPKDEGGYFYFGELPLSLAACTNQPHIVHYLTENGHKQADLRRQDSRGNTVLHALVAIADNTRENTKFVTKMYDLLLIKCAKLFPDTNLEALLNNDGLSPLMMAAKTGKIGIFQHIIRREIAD

binding result: binds
B1: Gallus gallus TRPV4 isolated intrinsically disordered region (residues 2-134) (domain or fragment, UniProt A0A1D5PXA5 2-134, looked up)
chain: ADPEDPRDAGDVLGDDSFPLSSLANLFEVEDTPSPAEPSRGPPGAVDGKQNLRMKFHGAFRKGPPKPMELLESTIYESSVVPAPKKAPMDSLFDYGTYRQHPSENKRWRRRVVEKPVAGTKGPAPNPPPILKV
notes: TRPV4, Gallus gallus, N-terminal intrinsically disordered region, residues 2-134; Made from the NTD vector by Gibson deletion; also called IDR; TRPV4 IDR; source: E. coli BL21-Gold(DE3), purified (Ni-NTA, Ulp-1 cleavage, reverse Ni-NTA, SEC); not shown: His6SUMO, N-terminal, cleaved

— PMC10344929, “Crosstalk between regulatory elements in disordered TRPV4 N-terminus modulates lipid-dependent channel activity” (Nature Communications, 2023)
